This series deals with the molecule itself. Briefly: SEC.

B1: Lipo-YcjN (recombinantly overexpressed lipidated YcjN, heterogeneously diacylated at cysteine 21) (natural protein, E. coli K-12, UniProt P76042 21-430, looked up)
chain: CKEENKTNVSIEFMHSSVEQERQAVISKLIARFEKENPGITVKQVPVEEDAYNTKVITLSRSGSLPEVIETSHDYAKVMDKEQLIDRKAVATVISNVGEGAFYDGVLRIVRTEDGSAWTGVPVSAWIGGIWYRKDVLAKAGLEEPKNWQQLLDVAQKLNDPANKKYGIALPTAESVLTEQSFSQFALSNQANVFNAEGKITLDTPEMMQALTYYRDLTANTMPGSNDIMEVKDAFMNGTAPMAIYSTYILPAVIKEGDPKNVGFVVPTEKNSAVYGMLTSLTITAGQKTEETEAAEKFVTFMEQADNIADWVMMSPGAALPVNKAVVTTATWKDNDVIKALGELPNQLIGELPNIQVFGAVGDKNFTRMGDVTGSGVVSSMVHNVTVGKADLSTTLQASQKKLDELIEQH
modifications: cysteine 21 diacylated, acyl chain compositions [16:0, 16:0] and [16:0, 18:1]
B1: the binding result is listed as “binds”.

The record behind these values is article PMC11398462 (bioRxiv, 2024).
